Measurements from patent WO2025037032A1.

Molecular target: coagulation Factor VIII (human) (UniProt P00451)
Assay: VWF:FVIIIB enzyme immunoassay; VWF of human plasma captured with rabbit anti-human VWF F(ab')2, bound FVIII detected; plasma pre-incubated 17 h at 37°C with 200 or 600 nM one-arm anti-VWF CK domain antibodies

Chain of UniProt P00451 (P00451 20-2351): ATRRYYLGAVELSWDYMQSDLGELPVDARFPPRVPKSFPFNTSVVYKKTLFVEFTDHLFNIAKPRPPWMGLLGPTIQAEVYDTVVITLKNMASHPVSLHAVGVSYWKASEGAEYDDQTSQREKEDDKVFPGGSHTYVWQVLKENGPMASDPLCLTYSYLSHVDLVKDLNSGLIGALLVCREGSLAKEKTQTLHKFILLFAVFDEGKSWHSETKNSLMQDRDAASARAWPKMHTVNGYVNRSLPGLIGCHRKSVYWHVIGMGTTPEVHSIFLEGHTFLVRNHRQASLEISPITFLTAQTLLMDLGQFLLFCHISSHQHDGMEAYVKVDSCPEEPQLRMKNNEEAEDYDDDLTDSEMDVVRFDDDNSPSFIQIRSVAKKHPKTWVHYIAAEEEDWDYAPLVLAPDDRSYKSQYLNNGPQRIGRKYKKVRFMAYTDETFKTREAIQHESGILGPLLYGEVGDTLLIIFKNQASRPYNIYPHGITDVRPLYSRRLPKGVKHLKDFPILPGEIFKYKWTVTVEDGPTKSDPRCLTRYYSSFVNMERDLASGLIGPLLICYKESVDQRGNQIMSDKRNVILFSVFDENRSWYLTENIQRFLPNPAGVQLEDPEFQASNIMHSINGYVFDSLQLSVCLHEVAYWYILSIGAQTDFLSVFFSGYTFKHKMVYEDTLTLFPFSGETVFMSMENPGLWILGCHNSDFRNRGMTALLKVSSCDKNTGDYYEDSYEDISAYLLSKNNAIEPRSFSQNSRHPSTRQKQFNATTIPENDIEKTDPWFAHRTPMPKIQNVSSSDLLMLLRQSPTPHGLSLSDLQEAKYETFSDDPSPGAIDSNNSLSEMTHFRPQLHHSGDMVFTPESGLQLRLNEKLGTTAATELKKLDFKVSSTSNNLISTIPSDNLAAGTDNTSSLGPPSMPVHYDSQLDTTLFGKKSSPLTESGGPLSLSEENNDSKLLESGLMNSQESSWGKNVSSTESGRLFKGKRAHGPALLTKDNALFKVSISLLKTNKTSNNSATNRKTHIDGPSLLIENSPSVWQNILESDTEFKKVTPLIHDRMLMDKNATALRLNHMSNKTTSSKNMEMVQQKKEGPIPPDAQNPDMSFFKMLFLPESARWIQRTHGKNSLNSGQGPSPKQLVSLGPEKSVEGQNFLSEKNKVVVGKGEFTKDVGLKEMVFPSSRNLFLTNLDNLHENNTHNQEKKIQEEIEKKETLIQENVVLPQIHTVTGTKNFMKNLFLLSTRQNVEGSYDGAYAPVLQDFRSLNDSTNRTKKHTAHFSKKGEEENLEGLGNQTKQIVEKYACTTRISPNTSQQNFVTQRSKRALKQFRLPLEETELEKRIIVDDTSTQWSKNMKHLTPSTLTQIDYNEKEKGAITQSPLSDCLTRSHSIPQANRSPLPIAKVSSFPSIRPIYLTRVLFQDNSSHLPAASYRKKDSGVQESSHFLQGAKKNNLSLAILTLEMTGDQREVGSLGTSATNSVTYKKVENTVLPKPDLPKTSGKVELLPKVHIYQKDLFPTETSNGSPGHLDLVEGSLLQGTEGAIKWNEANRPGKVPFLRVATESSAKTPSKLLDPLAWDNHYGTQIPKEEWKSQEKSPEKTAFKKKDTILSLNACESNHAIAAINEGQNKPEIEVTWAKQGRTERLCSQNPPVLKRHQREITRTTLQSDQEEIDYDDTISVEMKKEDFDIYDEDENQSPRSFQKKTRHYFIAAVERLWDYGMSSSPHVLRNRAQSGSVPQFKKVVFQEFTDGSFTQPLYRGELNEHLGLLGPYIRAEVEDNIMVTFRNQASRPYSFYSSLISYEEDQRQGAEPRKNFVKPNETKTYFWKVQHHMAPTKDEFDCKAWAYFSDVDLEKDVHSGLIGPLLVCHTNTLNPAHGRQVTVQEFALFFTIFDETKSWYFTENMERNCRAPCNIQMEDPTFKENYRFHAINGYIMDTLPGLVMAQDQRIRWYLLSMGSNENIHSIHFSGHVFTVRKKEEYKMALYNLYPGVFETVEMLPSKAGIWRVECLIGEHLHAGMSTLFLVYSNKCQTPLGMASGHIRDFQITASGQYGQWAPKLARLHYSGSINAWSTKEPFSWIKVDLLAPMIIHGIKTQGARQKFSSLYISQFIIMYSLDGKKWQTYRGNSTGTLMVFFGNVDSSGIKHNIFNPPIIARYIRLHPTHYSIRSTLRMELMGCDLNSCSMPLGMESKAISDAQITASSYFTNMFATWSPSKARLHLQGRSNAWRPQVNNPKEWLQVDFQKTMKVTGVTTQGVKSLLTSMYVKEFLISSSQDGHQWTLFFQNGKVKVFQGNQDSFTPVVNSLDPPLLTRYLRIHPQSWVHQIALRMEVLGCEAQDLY

mean level of VWF:FVIII relative to untreated donor-matched plasma: > 80%
Substance: human plasma-derived VWF (from UniProt P04275 764-2813)
